# Literature values, collected in publication PMC4041007.
# What was measured:
# LLT1 (Homo sapiens) = LLT1 (Homo sapiens) (UniProt Q9UHP7)
# KACL (Homo sapiens) = KACL (Homo sapiens) (UniProt Q6UVW9)
# Chain of UniProt Q6UVW9 (Q6UVW9 whole entry): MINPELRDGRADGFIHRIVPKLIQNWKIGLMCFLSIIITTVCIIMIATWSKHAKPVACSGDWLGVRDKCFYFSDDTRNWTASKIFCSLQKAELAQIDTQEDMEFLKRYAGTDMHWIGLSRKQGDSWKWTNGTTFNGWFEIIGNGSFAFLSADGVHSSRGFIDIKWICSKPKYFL
# Chain of UniProt Q9UHP7 (Q9UHP7 whole entry): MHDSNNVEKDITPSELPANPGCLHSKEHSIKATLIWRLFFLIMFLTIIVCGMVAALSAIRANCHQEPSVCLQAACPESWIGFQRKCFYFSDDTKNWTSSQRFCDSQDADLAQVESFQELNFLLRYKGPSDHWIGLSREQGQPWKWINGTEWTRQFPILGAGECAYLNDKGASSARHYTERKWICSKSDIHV
Kd (LLT1 (Homo sapiens)),Kd (KACL (Homo sapiens)),Substance
50 µM,,NKR-P1A (from UniProt Q12918)
,0.002 µM,NKp65 (from UniProt D3W0D1)
